We go through 22 sequences from the supplement of paper PMC9170038.

This series deals with K4 kissing-loop RNA reporter. Briefly: apparent KD of K4 kissing-loop reporter; higher = weaker reporter binding. The following applies: Eterna round: R107. As for the experimental part: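 RNA-MaP round R107: designed RNA switches with theophylline, tryptophan, arginine or FMN aptamers are transcribed on-chip within common flanks. They are titrated with a labelled K4 kissing-loop RNA reporter in RNA-MaP buffer (100 mM Tris pH 7.5, 80 mM KCl, 4 mM MgCl2), without ligand or with the indicated ligand. Median apparent KD per design.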

Setting [1] is: input ligand: theophylline 20 uM.
Setting [2] is: input ligand: tryptophan 2.4 mM.
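Also: bound reporter read as fluorescence of individual clusters on recovered sequencing chips by microscopy, with normalized cluster intensities fitted with a binding model.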

Take “UGUGGAGAAUAUGAUACCAGCAGUGAGAGAGAGGAAGUAUAGUGAUGUUAUAUGAGAGAAUGCCCUUGGCAGCAUAUGAAGAAGG [SSTheophylB.E]”: the “apparent KD of K4 kissing-loop reporter” value is, setting by setting: (input ligand: FMN 200 uM) 174 nM; (input ligand: arginine 13.2 mM) 120 nM; (input ligand: none) 148 nM; under setting [1], 138 nM; under setting [2], 115 nM.
The like results for “UGUGUUUACCUGACUCAGUGAUGUUGAGAAGGAGCGUGGGAAACCACAGGUAGGUCGCUCAACCUAAAUUCAGGUGAGCACUAAA” were, in that order, 327 nM, 219 nM, 399 nM, 303 nM and 231 nM.
The like results for “UUAAUAAUUCAAGGAUAUGUUUUCUAUUUCGAGUGAUGUUCGGAAUUAAUAAAUUUAAAAGAUUAUACAGAAGGUGAUAAAUAGU [Cynwulf-mod#2]” were, in that order, 87.1 nM, 92.8 nM, 85.9 nM, 115 nM and 81.1 nM.
The like results for “UUAGAGAUCUCAGGAUAUCAGUGAUGUUGUAAUCCAGAUCUGAGAUAGAAUUCUAUCUCAGAUCAAUGAGAAGGGAGAUCUCAUU [AK4.2 Exc FMN B]” were, in that order, 306 nM, 601 nM, 723 nM, 576 nM and 591 nM.
For the sequence “UUAGUGACAAGUCAGAUUCUGACAAUUGAUACCAGAUAGAAUUCUAUCCCUUGGCAGCAGUGAUGUUGUUGCAAAUAGUCACAUU [AK3 Exc Theophylline A]”, the “apparent KD of K4 kissing-loop reporter” value (input ligand: FMN 200 uM) amounted to 263 nM; the “apparent KD of K4 kissing-loop reporter” value (input ligand: arginine 13.2 mM) worked out at 209 nM; the “apparent KD of K4 kissing-loop reporter” value (input ligand: none) was 251 nM; the “apparent KD of K4 kissing-loop reporter” value under setting [1] worked out at 242 nM; the “apparent KD of K4 kissing-loop reporter” value under setting [2] was found to be 232 nM.
For “UUAUAACCCAGUGAUGUUGGGUAGCGGCCACGAGGACCGGUACGGCCGCCACUCGAGGUUUGACCAGUGAUGUUGGACUAUUUGG [Same state Tryptophan A GF 5]”, the “apparent KD of K4 kissing-loop reporter” value is, setting by setting: (input ligand: FMN 200 uM) 163 nM; (input ligand: arginine 13.2 mM) 134 nM; (input ligand: none) 156 nM; under setting [1], 147 nM; under setting [2], 47.1 nM.
“UUAUAUUUUAUAUUUAGAUGAUCUAUAGCACGAGGACCGGUACGGCCGCCACUCGAGUGAUGUUCGAGAGCUAUAGAUCAUCAUU [AK2.2 EXC Tryptophan A]”: the “apparent KD of K4 kissing-loop reporter” value (input ligand: FMN 200 uM) came out at 142 nM; the “apparent KD of K4 kissing-loop reporter” value (input ligand: arginine 13.2 mM) was 132 nM; the “apparent KD of K4 kissing-loop reporter” value (input ligand: none) amounted to 148 nM; the “apparent KD of K4 kissing-loop reporter” value under setting [1] is 121 nM; the “apparent KD of K4 kissing-loop reporter” value under setting [2] came out at 207 nM.
The like results for “UUAUAUUUUAUAUUUAGUAGAGCUCUAGCUCGAGGACCGGUACGGCCGCCACUCGAGUGAUGUUCGAGUGGGUGAGCUCUACAUU [AK3 EXC Tryptophan A]” were, in that order, 124 nM, 95.7 nM, 103 nM, 101 nM and 363 nM.
Consider “UUAUCACCCUAAGGAUAUAGCUAAGUGAUGUUUAGCUCGUCGCAGGGUAAACACUAGGCCCAAAGGCUAGAAGGUAGCUGGUACC [theeternabot_exclusion_KL_FMN_B_35]”, for which the “apparent KD of K4 kissing-loop reporter” value is 70.6 nM (input ligand: FMN 200 uM); 66.9 nM (input ligand: arginine 13.2 mM); 74 nM (input ligand: none); 81.3 nM under setting [1]; 69.6 nM under setting [2].
Turning to “UUAUUAAUCGCAGAUACCAGUCCAGAAUGAAUACUAUAGUGAUGUUAUAAUAAAGGGAAGGACCCUUGGCAGCUGUAAUAUAUUU [AstrosSsTheB#3]”, the “apparent KD of K4 kissing-loop reporter” value runs as follows: (input ligand: FMN 200 uM) 371 nM; (input ligand: arginine 13.2 mM) 278 nM; (input ligand: none) 401 nM; under setting [1], 240 nM; under setting [2], 280 nM.
Regarding “UUAUUAUAUUGUAAUGAUAUAGAAACCGAAGGAGCGACAUAAAAGUCAGGUAGGUCGCGGUGUACUCAGUGAUGUUGAGAGUAUU [JR_SSArginiA_Sub013]”, the “apparent KD of K4 kissing-loop reporter” value runs as follows: (input ligand: FMN 200 uM) 141 nM; (input ligand: arginine 13.2 mM) 265 nM; (input ligand: none) 172 nM; under setting [1], 271 nM; under setting [2], 100 nM.
Turning to “UUCUAACACACCGAUACCAGAGCCCAGUGAUGUUGGGCCUAGGUCGGAUGCUCACUGACGCUCCCUUGGCAGCGGUGGGCUAACC [Arreisve]”, the “apparent KD of K4 kissing-loop reporter” value (input ligand: FMN 200 uM) came out at 127 nM; the “apparent KD of K4 kissing-loop reporter” value (input ligand: arginine 13.2 mM) worked out at 112 nM; the “apparent KD of K4 kissing-loop reporter” value (input ligand: none) came to 116 nM; the “apparent KD of K4 kissing-loop reporter” value under setting [1] was 110 nM; the “apparent KD of K4 kissing-loop reporter” value under setting [2] was found to be 114 nM.
The like results for “UUCUACGUGCAAGGAUAUCCAUACGCUGCUAAGCGGGUAGCGAUAUAUGGAGUGAUGUUCCAUGUAGGAGAAGGUGCACUGUCCU [Rieser]” were, in that order, 144 nM, 295 nM, 348 nM, 253 nM and 242 nM.
The like results for “UUCUCUCAGGCACGCGAGUGAUGUUCGCGGCGAGGACCGGUACGGCCGCCACUCGCGCCUGAGAGAGGUUAUCAAAGAUAGCCUU [whbob_SS_tryp_A]” were, in that order, 163 nM, 92.3 nM, 94.7 nM, 186 nM and 208 nM.
The like results for “UUCUUGAUGGAAACAUCGAGGAUCACUGAUACCAGUAUCGAUAGAUACCCUUGGCAGCAGUGUCGGUGGUCACGAGUGAUGUUCG [Ex Theophylline A K4 12]” were, in that order, 718 nM, 731 nM, 811 nM, 719 nM and 787 nM.
As for “UUCUUGAUGGAAACAUCGAGGAUUACUGAUACCAGUAUCGAUAGAUACCCUUGGCAGCAGUAUCGGUGAUCACGAGUGAUGUUCG [Ex Theophylline A K4 11]”, the “apparent KD of K4 kissing-loop reporter” value was 669 nM (input ligand: FMN 200 uM); 576 nM (input ligand: arginine 13.2 mM); 785 nM (input ligand: none); 757 nM under setting [1]; 607 nM under setting [2].
The like results for “UUUAAAUAUAGUGAUGUUAUAUAACAAUGACGAGGACCGGUACGGCCGCCACUCGAGAGAGAUAAUGGUCUUACAAAUGUAAGUU [AstrosSSTryA#9]” were, in that order, 567 nM, 646 nM, 793 nM, 822 nM and 481 nM.
“UUUAGGAACUGAGGAUAUUCGAAGAAAUAUAGUGAUGUUAUAUAAGGAGGAGGAGGGAGGGAGGAAGGAGAAGGCAGAAGAGGAG [ExFMNB.E]”: the “apparent KD of K4 kissing-loop reporter” value (input ligand: FMN 200 uM) is 368 nM; the “apparent KD of K4 kissing-loop reporter” value (input ligand: arginine 13.2 mM) came out at 243 nM; the “apparent KD of K4 kissing-loop reporter” value (input ligand: none) is 246 nM; the “apparent KD of K4 kissing-loop reporter” value under setting [1] was 330 nM; the “apparent KD of K4 kissing-loop reporter” value under setting [2] amounted to 248 nM.
On to “UUUAUAAAGUCGGCCGCCACUGGAUUUAUAUUUGUUUAAUCUGGAUCAAAGUGAUGUUUUGAGUCCAGGACCGGGACAUUUGUUA [JR_ExcTryptoB_Sub002]”, for which the “apparent KD of K4 kissing-loop reporter” value reads like this: (input ligand: FMN 200 uM) 125 nM; (input ligand: arginine 13.2 mM) 123 nM; (input ligand: none) 124 nM; under setting [1], 135 nM; under setting [2], 232 nM.
“UUUCGUUGAAGUGAUACCAGACUUGAAAGUGAUGUUUUCCAAUAAAUUAAAUUAUUAGCUGUCCCUUGGCAGCACAGUUUAUUUA [JR_ExcTheophyB_Sub006]”: the “apparent KD of K4 kissing-loop reporter” value runs as follows: (input ligand: FMN 200 uM) 205 nM; (input ligand: arginine 13.2 mM) 345 nM; (input ligand: none) 301 nM; under setting [1], 389 nM; under setting [2], 186 nM.
For the sequence “UUUGGUUGUGGUGUUGAUUAGGGAGCGGAAGGAGCGCCGAGGAGGGCAGGUAGGUCGCCGGAAUGUAGUGAUGUUGCAUAGAGGU [ExArgA.Ad]”, the “apparent KD of K4 kissing-loop reporter” value reads like this: (input ligand: FMN 200 uM) 325 nM; (input ligand: arginine 13.2 mM) 277 nM; (input ligand: none) 198 nM; under setting [1], 603 nM; under setting [2], 341 nM.
The like results for “UUUGUAUAGGGAAGGAGCGUGAAUGAUAAAGAAUAUAGUGAUGUUAUAUAGAAGAAAGAAUCACAGGUAGGUCGCCCGGAGGAGG [SSArgB.H]” were, in that order, 599 nM, 491 nM, 552 nM, 450 nM and 361 nM.
